From patent US7919233B2, “Motif of the beclin protein which interacts with anti-apoptotic members of the Bcl-2 protein family, and uses” (Les Laboratoires Servier, priority 2005, dated 2011)

Tests used:
Type in all cases: binding
Details in all cases: relative to the Beclin peptide according to the invention
[1] = biological target: T1, Bcl-W (Homo sapiens, UniProt Q92843); assay: Ki by fluorescence polarisation: competition with the Bak BH3 carboxyfluorescein peptide for Bcl-W
T1 sequence (Q92843 1-193): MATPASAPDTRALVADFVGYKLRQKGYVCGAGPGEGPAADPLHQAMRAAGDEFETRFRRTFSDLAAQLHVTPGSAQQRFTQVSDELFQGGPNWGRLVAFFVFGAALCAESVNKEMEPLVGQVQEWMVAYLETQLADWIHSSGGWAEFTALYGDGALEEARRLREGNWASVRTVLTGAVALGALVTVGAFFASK
Description: (§1) The determination of Ki using fluorescence polarisation consists of measuring the competitive effect of the Beclin peptide on the interaction between the pro-apoptotic Bak peptide and anti-apoptotic members of the Bcl-2 protein family such as Bcl-XL, Bcl-2 or Bcl-W.
(§2) The following reagents are mixed together in the order stated: • a) competitor peptide at a final concentration of from 1 nM to 100 μM; • b) fluorescent peptide ligand (Bak BH3 carboxyfluorescein) at a final concentration of 15 nM; • c) anti-apoptotic member of the Bcl-2 protein family at a final concentration of 100 nM for Bcl-XL and of 1 μM for Bcl-2 and Bcl-W.
(§3) These reagents are dissolved in the interaction buffer (Na2HPO4 20 mM pH 7.4, EDTA 1 mM, NaCl 50 mM and pluronic acid F-68 0.05%).
(§4) The mixture is then incubated for 30 minutes at ambient temperature and the fluorescence polarisation is determined on a Fusion apparatus (Packard) (excitation at 485 nm and reading at 530 nm). The values are given in mP (unit of fluorescence polarisation).
(§5) The protocol for the determination of Ki using fluorescence polarisation is the same as the protocol described above.

[2] = biological target: Bcl-2 (Homo sapiens, UniProt P10415); assay: Ki by fluorescence polarisation: competition with the Bak BH3 carboxyfluorescein peptide for Bcl-2
Chain of Bcl-2 (P10415 whole entry): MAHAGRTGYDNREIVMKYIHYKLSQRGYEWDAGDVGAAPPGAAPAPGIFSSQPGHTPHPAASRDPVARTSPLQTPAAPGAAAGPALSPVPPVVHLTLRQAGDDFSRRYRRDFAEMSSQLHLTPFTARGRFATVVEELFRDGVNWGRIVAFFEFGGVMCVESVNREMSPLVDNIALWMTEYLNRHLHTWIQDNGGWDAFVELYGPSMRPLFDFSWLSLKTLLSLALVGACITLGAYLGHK
Description: as §1, §2, §3, §4, §5

[3] = biological target: Bcl-XL (Homo sapiens, UniProt Q07817); assay: Ki by fluorescence polarisation: competition with the Bak BH3 carboxyfluorescein peptide for Bcl-XL
Chain of Bcl-XL (Q07817 whole entry): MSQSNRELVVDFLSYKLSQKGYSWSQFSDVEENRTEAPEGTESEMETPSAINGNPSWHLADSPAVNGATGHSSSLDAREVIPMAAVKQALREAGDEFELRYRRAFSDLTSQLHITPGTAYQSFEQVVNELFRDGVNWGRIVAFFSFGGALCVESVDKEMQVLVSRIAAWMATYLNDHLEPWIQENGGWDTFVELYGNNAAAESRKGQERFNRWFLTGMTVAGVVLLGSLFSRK
Description: as §1, §2, §3, §4, §5

GTMENLSRRAKVTGDLFDIMSGQTDV (Mutated Beclin Peptide) [mutant Beclin protein (L116A)]
loss of competitive effect: competitive effect on the interaction between Bak peptide and Bcl-W [1] | competitive effect on the interaction between Bak peptide and Bcl-2 [2] | competitive effect on the interaction between Bak peptide and Bcl-XL [3]
